Experiments:
HLA-A*02:03 [1] = assay: IEDB peptide-MHC binding, purified MHC/competitive/radioactivity; ≥ and ≤ were set here for values at or beyond the usual limits of such assays
HLA-A*02:06 [2] = assay: as above
HLA-A*68:02 [3] = assay: as above; conditions: source organism: Human immunodeficiency virus type 1 (isolate YU2)
HLA-A*02:02 [4] = assay: as above; conditions: source organism: Human immunodeficiency virus type 1 (isolate YU2)
HLA-A*02:06 [5] = assay: IEDB peptide-MHC binding, purified MHC/competitive/radioactivity; filed as Kd, often an IC50 or EC50 that approximates it; ≥ and ≤ were set here for values at or beyond the usual limits of such assays; conditions: source organism: Human immunodeficiency virus type 1 (isolate YU2)
HLA-A*02:02 [6] = assay: as above
HLA-A*68:02 [7] = assay: as above
HLA-A*02:03 [8] = assay: as above; conditions: source organism: Human immunodeficiency virus type 1 (isolate YU2)
[9] = source organism: Human immunodeficiency virus type 1 (isolate YU2)
[10] = source organism: Human immunodeficiency virus 1

Sequence	IC50 (HLA-A*02:03 [1]; [9]) [nM]	IC50 (HLA-A*02:06 [2]; [9]) [nM]	IC50 (HLA-A*68:02 [3]) [nM]	IC50 (HLA-A*02:02 [4]) [nM]	further results
AIIRILQQL	41.7	38.5	548	22.6	–
ILKEPVHGV	–	–	–	–	Kd (HLA-A*02:06 [5]): ≥ 37000 nM
KAACWWAGI	83.3	161	–	–	Kd (HLA-A*02:02 [6]; [9]): 1080 nM
KMIGGIGGFI	4.8	771	–	54.4	Kd (HLA-A*68:02 [7]; [9]): 3.33 µM
LLQLTVWGI	43.5	24.7	645	215	–
LTFGWCFKL	–	206	5.6	33.1	Kd (HLA-A*02:03 [8]): 4.55 µM
LTFGWCFKLV	185	–	6.2	48.9	–
LVGPTPVNI	19.2	–	67.8	154	Kd (HLA-A*02:06 [5]): 2850 nM
MASDFNLPPV	55.6	33.6	18.2	22.6	–
MTNNPPIPV	33.3	–	12.1	–	Kd (HLA-A*02:06 [5]): 1610 nM; Kd (HLA-A*02:02 [6]; [9]): 7170 nM
RILQQLLFI	125	37	–	–	Kd (HLA-A*68:02 [7]; [9]): 1.82 µM; Kd (HLA-A*02:02 [6]; [9]): 1540 nM
SLLNATDIAV	–	–	–	–	IC50 (HLA-A*02:03 [1]; [10]): 238 nM; IC50 (HLA-A*02:06 [2]; [10]): 28.5 nM; Kd (HLA-A*68:02 [7]; [10]): 5.48 µM; Kd (HLA-A*02:02 [6]; [10]): 1300 nM
VLAEAMSQV	15.2	116	–	82.7	–

From the Immune Epitope Database (IEDB)
